From paper doi:10.1101/2023.04.13.536802 (bioRxiv, 2023) come the findings set out here.

The experiment has as its target recombinant transferrin receptor 1 (TfR1) ectodomain (residues C89-F763) (UniProt Q62351 89-763). The experiment is described as follows: BLI. (In general: In BLI a coated tip is dipped into the sample, and binding shifts an interference pattern.)

Where no end group is shown, it is not given here.

The Kd is the free concentration of one partner at which half of the binding sites on the other are occupied at equilibrium, for simple one-to-one binding.

recombinant transferrin receptor 1 (TfR1) ectodomain (residues C89-F763), sequence (Q62351 89-763): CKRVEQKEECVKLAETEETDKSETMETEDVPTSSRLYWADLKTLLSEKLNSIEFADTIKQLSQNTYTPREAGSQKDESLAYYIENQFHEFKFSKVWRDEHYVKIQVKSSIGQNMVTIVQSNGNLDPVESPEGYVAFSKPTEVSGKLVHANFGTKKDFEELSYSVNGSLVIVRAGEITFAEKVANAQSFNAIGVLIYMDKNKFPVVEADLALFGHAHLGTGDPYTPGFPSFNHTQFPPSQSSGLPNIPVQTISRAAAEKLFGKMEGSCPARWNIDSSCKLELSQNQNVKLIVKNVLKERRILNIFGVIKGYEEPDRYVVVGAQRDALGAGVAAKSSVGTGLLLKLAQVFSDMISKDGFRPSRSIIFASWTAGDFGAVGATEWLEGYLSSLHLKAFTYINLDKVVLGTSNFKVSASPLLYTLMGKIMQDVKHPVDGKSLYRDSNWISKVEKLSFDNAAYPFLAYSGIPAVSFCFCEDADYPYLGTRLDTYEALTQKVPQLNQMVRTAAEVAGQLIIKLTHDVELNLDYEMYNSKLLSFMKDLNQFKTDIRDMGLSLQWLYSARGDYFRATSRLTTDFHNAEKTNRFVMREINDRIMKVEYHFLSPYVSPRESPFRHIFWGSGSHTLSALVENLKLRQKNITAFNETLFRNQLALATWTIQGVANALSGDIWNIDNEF

Turning to THRPPMWSPVWP (also: biotin, position not given here) [T12, 12-mer peptide that binds transferrin receptor 1], the Kd was determined as 26 nM.
